Reference: publication doi:10.1101/2021.12.24.474084 (bioRxiv, 2021)

Target: SARS-CoV-2 wild-type receptor binding domain (RBD) (ACROBiosystems, Cat No. SPD-C52H3) (SARS-CoV-2 wild-type (MN908947), UniProt P0DTC2)
Test: BLI

Row | Binder | binding result
1 | XGv282 monoclonal antibody (antibody, V domains shown) VH: VQLVQSGAEVKKPGSSVKVSCKASGDTFSSYTFSWVRQAPGQGLEWMGRSIPIVGKAIYAQEFQGRVTISADRSTTTVYMELSSLRSDDTAVYYCARDQSGFDFFYYDHWGQGTLVAV VL: QSVLTQPPSASGTPGQRVTISCSGSGSNIGSNTINWYQQLPGTAPKVLIYRNNERPSGVPDRFSGSKSGTSASLTISGLQSEDEAYYHCAAWDDSLNGPVFGGGTKLTVL | binds
2 | XGv265 monoclonal antibody (antibody, V domains shown) VH: QITLKESGPTLVKPTQTLTLTCNFSGFSLNTYGVGVGWIRQPPGKALEWLALIYWDGDERYGPFFKNKVTIAKDTSKNQVVLTMTNMDPVDTATYYCARHLIPTIFDYWGQGTLVTVSS VL: ALTQPASVSGSPGQSITISCTGTSSDVGGSNYVSWYQHHPDRAPKLLIYEVTNRPSGVSNRFSGSKSANTASLTISGLQAEDEADYYCSSYTTTSTHILFGGGTKLTV | binds
3 | XGv347 monoclonal antibody (antibody, V domains shown) VH: QMQLVQSGPEVKKPGTSVKVSCKASGFTFTDVSSLQWVRQARGQRLEWIGWTVVGTGNTNYAPRFQERVTITTDKSTSTAYMELSSLRSEDTAVYYCAAPFCSETSCSDGFDLWGQGTKVTVS VL: EIVLTQSPGTLSLSPGDRATLSCRASQSVRISYLAWYQQKPGQAPRLLISGSSSRATGIPDRFSASGSGTDFTLTISRLEPEDFAVYYCQQYANSPWTFGQGTKVEV | binds
4 | XGv289 monoclonal antibody (antibody, V domains shown) VH: QVQLVQSGAEVKKPGASLKVSCRASGYTFTSHFIHWVRQAPGQGLEWMGIINPSGGASYAQNFRDRVTMTTDPSTSTVYMELGSLRSEDTAVYYCARAEGSSWLGWFDPWGQGTLVTVSS VL: SVLTQPPSASGTPGQRVTIPCSGSSSNIGNNYVYWYQQLPGTAPKLLVYGNNQRPSGVPDRFSVSKSGTSASLAISGLRSEDEADYYCAAWDDGLSGSGWVFGGGTKLTVL | binds
